Results taken from patent publication CN118076384A (SPARKS BIOSCIENCE INC, dated 2024).
Substitutions are numbered along the chain they refer to.

Legend:
[1] = target: T1, PDL1 on MDA MB-231 human breast cancer cells (human, UniProt Q9NZQ7 19-290); test: flow cytometry on MDA MB-231 cells, anti-human IgG Fc secondary antibody
T1 construct: whole, on cells; also called 表达PD-L1的肿瘤细胞

[2] = target: PDL1 on PDL1 aAPC/CHOK1 cells (UniProt Q9NZQ7 19-290, limits assumed); test: cell-based or functional assay
[3] = target: T2, 人PD-L1 (recombinant protein of the phage ELISA) (human, UniProt Q9NZQ7 19-239, limits assumed); test: competitive phage ELISA, ratio to parental clone 12A4
T2 construct: also called CD274; B7同源物1

[4] = target: T2, 人PD-L1 (recombinant protein of the …); test: competitive phage ELISA, Fab on phage, soluble PD-L1 against coated PD-L1

B1: 抗PDL1单克隆抗体12A4bad (antibody, V domains shown)
VH: QVQLVQSGAEVKKPGSSVKVSCKTSGDTFSTYAISWVRQAPGQGLEWMGGIIPLFGKAHYAQKFQGRVTITADESTSTAYMELSSLRSEDTAVYFCARKFHFVRGSPFGMDVWGQGTTVTVSS
VL: EIVLTQSPATLSLSPGERATLSCRASQSVSSYLAWYQQKPGQAPRLLIYDASNRAPGIPARFSGSGSGTDFTLTISSLEPEDFAVYYCQQRSNWPTFGQGTKVEIK
- Kd [1]: 0.0778 nM
- EC50 of luminescence in the PDL1/PD1 blockade bioassay [2]: 0.344 nM

B2: 12A4bd (Fab displayed on phage) (Fab, V domains shown)
VH: B1 VH
VL: not shown
- 相对于12A4亲本克隆的改善 [3]: 6.3 fold
- Kd [4]: 1.8 nM

B3: 12A4bad (Fab displayed on phage) (Fab, V domains shown)
VH: B1 VH
VL: B1 VL
- 相对于12A4亲本克隆的改善 [3]: 7.5 fold
- Kd [4]: 1.5 nM

B4: 12A4a (Fab displayed on phage) (Fab, V domains shown)
VH: B1 VH with L54I, R104S
VL: B1 VL
- 相对于12A4亲本克隆的改善 [3]: 1.3 fold
- Kd [4]: 8.3 nM
